Test results from patent US20080020978A1 (Amgen, published 2008).
Like-named read-outs stand apart in the source and are kept apart here. Ends that are not written are not given here.

Experiments:
[1] = molecular target: T1, CGRP1 receptor (CRLR/RAMP1 complex) of human neuroblastoma SK-N-MC cells (human, UniProt Q16602 23-461; O60894 27-148); assay: cell-based or functional assay
[2] = molecular target: T1, CGRP1 receptor (CRLR/RAMP1 complex) of …; assay: cell-based or functional assay; remark: listed apart in the source
[3] = molecular target: T1, CGRP1 receptor (CRLR/RAMP1 complex) of …; assay: cell-based or functional assay; remark: listed apart in the source
[4] = molecular target: T1, CGRP1 receptor (CRLR/RAMP1 complex) of …; assay: cell-based or functional assay; remark: listed apart in the source
[5] = molecular target: T2, rat ortholog of the CGRP1 receptor (rat, UniProt Q63118 24-464; Q9JJ74 27-148, limits assumed); assay: cell-based or functional assay
T2 sequence (Q63118 24-464 limits assumed, chain 1 of 2): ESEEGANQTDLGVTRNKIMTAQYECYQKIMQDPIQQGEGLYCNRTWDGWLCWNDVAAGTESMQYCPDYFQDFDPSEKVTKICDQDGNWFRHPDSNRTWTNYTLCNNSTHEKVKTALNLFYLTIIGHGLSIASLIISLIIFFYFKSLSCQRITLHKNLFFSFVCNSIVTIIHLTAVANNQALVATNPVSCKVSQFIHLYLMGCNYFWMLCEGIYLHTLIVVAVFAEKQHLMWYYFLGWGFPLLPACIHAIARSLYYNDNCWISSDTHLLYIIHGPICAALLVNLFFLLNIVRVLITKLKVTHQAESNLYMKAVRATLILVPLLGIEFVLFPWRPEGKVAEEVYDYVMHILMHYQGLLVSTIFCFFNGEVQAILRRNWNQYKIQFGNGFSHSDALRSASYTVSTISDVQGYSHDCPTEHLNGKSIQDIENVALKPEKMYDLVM
T2 sequence (Q9JJ74 27-148 limits assumed, chain 2 of 2): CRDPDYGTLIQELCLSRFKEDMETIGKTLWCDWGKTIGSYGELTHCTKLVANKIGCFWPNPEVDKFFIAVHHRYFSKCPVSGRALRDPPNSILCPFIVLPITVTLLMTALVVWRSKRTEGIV

[6] = molecular target: T2, rat ortholog of the CGRP1 receptor; assay: cell-based or functional assay; remark: listed apart in the source
[7] = molecular target: T1, CGRP1 receptor (CRLR/RAMP1 complex) of …; assay: 125I-hαCGRP competition, SK-N-MC membranes

T1 sequence (Q16602 23-461, chain 1 of 2): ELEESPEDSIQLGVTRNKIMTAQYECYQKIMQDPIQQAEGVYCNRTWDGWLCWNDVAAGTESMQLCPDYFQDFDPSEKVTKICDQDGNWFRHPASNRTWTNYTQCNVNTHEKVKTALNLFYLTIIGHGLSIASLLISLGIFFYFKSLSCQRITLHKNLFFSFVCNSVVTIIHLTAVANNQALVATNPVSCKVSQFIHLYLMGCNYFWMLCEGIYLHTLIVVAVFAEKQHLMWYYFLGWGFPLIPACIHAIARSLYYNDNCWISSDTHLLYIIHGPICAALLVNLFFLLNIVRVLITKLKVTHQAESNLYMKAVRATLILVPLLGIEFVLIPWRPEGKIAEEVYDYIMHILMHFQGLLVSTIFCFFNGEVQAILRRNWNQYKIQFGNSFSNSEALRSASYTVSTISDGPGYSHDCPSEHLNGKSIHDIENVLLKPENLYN
T1 sequence (O60894 27-148, chain 2 of 2): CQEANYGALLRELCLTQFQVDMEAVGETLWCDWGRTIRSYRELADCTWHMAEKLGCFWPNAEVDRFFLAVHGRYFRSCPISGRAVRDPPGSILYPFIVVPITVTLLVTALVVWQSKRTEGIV

| Binder | IC50 [2] | IC50 [3] | in vitro IC50 (rat ortholog; nM) [5] | Ki [7] | also measured |
| --- | --- | --- | --- | --- | --- |
| Ac-WVTHRLAGLLSRSGGVVRCNFVPTDVGPFAF-NH2 [SEQ ID NO 8] | 0.5 nM | 0.5 nM | – | – | fold change in potency against SEQ ID NO:9 [1]: > 4 fold |
| CGGGGGGGVTHRLAGLLSRSGGVVKNNFVPTDVGPFAF-NH2 [SEQ ID NO 3] | 0.72 nM | 0.72 nM | – | – | fold change in potency against SEQ ID NO:1 [1]: > 6 fold |
| Ac-WVTHRLAGLLSRSGGVVRK(20 kDa MeO‑PEG)NFVPTDVGPFAF-NH2 [SEQ ID NO 809] | – | – | 6.4 nM | – | IC50 [4]: 0.32 nM |
| Ac-WVTHRLAGLLSRSGGVVRKNFVPTDVGPFAF-NH2 [SEQ ID NO 808] | – | – | 5.4 nM | – | – |
| Ac-WVTHRLAGLLSRSGGVCRNNFVPTDVGPFAF-NH2 [SEQ ID NO 10] | 0.36 nM | 0.36 nM | – | – | – |
| WVTHXLAGLLSXSGGVVRKNFVPTDVGPFAF (Ac-WVTH[Cit]LAGLLS[Cit]SGG VVRK^(20 kDa MeO-PEG)NFVPTDVGPFAF-amide) [SEQ ID NO 791] | – | – | 131 nM | 1.83 nM | fold loss of potency against SEQ ID NO:31 [6]: ~9 fold; IC50 [4]: 3.74 nM |
| WVTHXLAGLLSXSGGVVXKNFVPTDVGPFAF (Ac-WVTH[Cit]LAGLLS[Cit]SGGVV[hArg]KNFVPTDVGPFAF-NH2) [SEQ ID NO 739] | – | – | 8.9 nM | 0.53 nM | – |
| WVTHXLAGLLSXSGGVVXKNFVPTDVGPXAF (Ac-WVTH[Cit]LAGLLS[Cit]SGGVV[hArg]K(20 KPEGald)NFVPTDVGP[1-Nal]AF-NH2) [SEQ ID NO 173] | – | – | 49.5 nM | 0.84 nM | – |
| Ac-WVTHRLAGLLSRSGGVKRNNFVPTDVGPFAF-NH2 [SEQ ID NO 11] | 0.51 nM | 0.51 nM | – | – | – |
